Measurements reported in publication PMC6007975.
Where “and” joins values, the source holds several entries; their conditions need not be identical. Identical values can stand only once.

Target: N-terminal fragment of mouse GSDMA3 (GSDMA3-NT) (mouse) (UniProt Q5Y4Y6)
Assay: cryo-EM structure

stoichiometry N: 26 and 28
Substance: N-terminal fragment of mouse GSDMA3 (GSDMA3-NT) (from UniProt Q5Y4Y6 1-262) (domain or fragment)
